Test results: patent US20220323614A1, “KRAS-SPECIFIC CYCLIC PEPTIDES, COMPOSITIONS, AND METHODS OF USING AND MAKING” (Indi Molecular, Inc., priority 2021, published 2022)
Primed or numbered codes have the meaning given here. Where no end group is shown, it is not given here. [ ]: non-standard residue; d: D form. The star is where a group is joined. Az2 = aminoazidobutanoic acid, ring closure; dPhe(4-Br) = N[C@H](Cc1ccc(Br)cc1)C(=O)O; 2Nal = N[C@@H](Cc1ccc2ccccc2c1)C(=O)O; Palmitoyl = CCCCCCCCCCCCCCCC(=O)*; Tic = O=C(O)[C@@H]1Cc2ccccc2CN1; Cha = N[C@@H](CC1CCCCC1)C(=O)O; Dab = NCC[C@H](N)C(=O)O; Thz′ = not defined here; Phf = not defined here

B1: Ac-w(Dab)yf-Lys(Pal) (peptide)
peptide: Ac-[dW][Dab][dY][dF]K(Palmitoyl)
modifications: triazole (positions not given here); also: cyclic via triazole, ring-closing residues not given here
B2: Ac-wky(2-Nal)-Lys(Pal) (peptide)
peptide: Ac-[dW][dK][dY][2Nal]K(Palmitoyl)
modifications: triazole (positions not given here); also: cyclic via triazole, ring-closing residues not given here
B3: Ac-wky(4-F-f)-Lys(Pal) (peptide)
peptide: Ac-[dW][dK][dY][4‑F‑f]K(Palmitoyl)
modifications: triazole (positions not given here); also: cyclic via triazole, ring-closing residues not given here
B4: Ac-(Thz)kyf-Lys(Pal) (peptide)
peptide: Ac-[Thz′][dK][dY][dF]K(Palmitoyl)
modifications: triazole (positions not given here); reading uncertain; also: cyclic via triazole, ring-closing residues not given here, printed as Ac-(Thz)kyf-Lys(Pal)
B5: Ac-wky(Phf)-Lys(Pal) (peptide)
peptide: Ac-[dW][dK][dY][Phf]K(Palmitoyl)
modifications: triazole (positions not given here); reading uncertain; also: cyclic via triazole, ring-closing residues not given here, printed as Ac-wky(Phf)-Lys(Pal)
B6: Ac-(Tic)kyf-Lys(Pal) (peptide)
peptide: Ac-[Tic][dK][dY][dF]K(Palmitoyl)
modifications: triazole (positions not given here); also: cyclic via triazole, ring-closing residues not given here
B7: Ac-wkyf-Az2-Lys(Pal) (peptide)
peptide: Ac-[dW][dK][dY][dF][Az2]K(Palmitoyl)
modifications: triazole (positions not given here); also: cyclic via triazole, other ring-closing residue not given here
B8: Ac-wky(4-Cl-f)-Lys(Pal) (peptide)
peptide: Ac-[dW][dK][dY][4‑Cl‑f]K(Palmitoyl)
modifications: triazole (positions not given here); also: cyclic via triazole, ring-closing residues not given here
B9: Ac-wk(4-Br-f)f-Lys(Pal) (peptide)
peptide: Ac-[dW][dK][dPhe(4-Br)][dF]K(Palmitoyl)
modifications: triazole (positions not given here); also: cyclic via triazole, ring-closing residues not given here
B10: Ac-wky(4-Br-f)-Lys(Pal) (peptide)
peptide: Ac-[dW][dK][dY][dPhe(4-Br)]K(Palmitoyl)
modifications: triazole (positions not given here); also: cyclic via triazole, ring-closing residues not given here
B11: Ac-wky(Cha)-Lys(Pal) (peptide)
peptide: Ac-[dW][dK][dY][Cha]K(Palmitoyl)
modifications: triazole (positions not given here); also: cyclic via triazole, ring-closing residues not given here

These binders were tested against KRAS (G12D) as expressed in G12D-mutant cancer cells (AsPC-1, SW 1990, pancreatic cancer cells) (human) (UniProt P01116) (assay: cell-based or functional assay).

pERK G12D (AsPC-1 at 4 µM for 12 hours) | Binder
0.625 | B1
0.71 | B2
1.14 | B3
1.11 | B4
1.32 | B5
0.974 | B6
0.794 | B7
0.8 | B8
0.776 | B9
0.606 | B10
1.13 | B11

These binders were tested against KRAS (WT) as expressed in BxPC-3 cells (human) (UniProt P01116) (assay: cell-based or functional assay).

pERK WT (BxPC-3 at 4 µM for 12 hours) | Binder
0.982 | B1
0.871 | B2
1.71 | B3
0.851 | B4
0.757 | B5
0.806 | B6
1.16 | B7
1.05 | B8
0.895 | B9
1.09 | B10
1.27 | B11
